From article PMC4134263
Read-outs that look alike come from different tables or passages of the source.

What was measured:
PdhR [1] = molecular target: T1, PdhR (Escherichia coli, UniProt P0ACL9 1-254); assay: EMSA
PdhR [2] = molecular target: T1, PdhR; assay: EMSA; remark: listed apart in the source

T1 sequence (P0ACL9 whole entry): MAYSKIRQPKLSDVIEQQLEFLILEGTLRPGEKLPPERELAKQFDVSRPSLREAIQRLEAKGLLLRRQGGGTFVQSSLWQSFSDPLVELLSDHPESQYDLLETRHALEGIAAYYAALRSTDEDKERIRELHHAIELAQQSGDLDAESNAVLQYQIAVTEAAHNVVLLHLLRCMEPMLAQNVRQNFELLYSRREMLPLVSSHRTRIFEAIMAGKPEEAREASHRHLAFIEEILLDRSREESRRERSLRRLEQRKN

Row | Binder | binding result (PdhR [1]) | binding result (PdhR [2])
1 | lipA site 2 probe (dsDNA) DNA 1: CAAAAATAGTTGATAATTACAACAATCTATTGAATTGAAACGC DNA 2: GCGTTTCAATTCAATAGATTGTTGTAATTATCAACTATTTTTG | no binding | –
2 | lipA site 1 probe (dsDNA) DNA 1: GAAACGCTTTCCTTCGTAATTCGCAACTGGAACACGCACGCTATGAG DNA 2: CTCATAGCGTGCGTGTTCCAGTTGCGAATTACGAAGGAAAGCGTTTC | – | no binding
